Consider 2 molecules from patent publication US20240425603A1 (Janssen / Centocor, published 2024).

The target in test [1] is T1, human VEGFR2, over-expressed on HEK293 cells (human, UniProt P35968 20-1356).
T1 construct: whole, on cells; also called huVEGFR2; hVEGFR2
Put plainly: flow cytometry, single concentration (Table 21).

Test [2] has as its target T2, NECTIN1 Isoform Alpha (NM_203285.1) (human, UniProt Q15223-2 31-458).
T2 construct: whole, on cells
T2 sequence (looked up): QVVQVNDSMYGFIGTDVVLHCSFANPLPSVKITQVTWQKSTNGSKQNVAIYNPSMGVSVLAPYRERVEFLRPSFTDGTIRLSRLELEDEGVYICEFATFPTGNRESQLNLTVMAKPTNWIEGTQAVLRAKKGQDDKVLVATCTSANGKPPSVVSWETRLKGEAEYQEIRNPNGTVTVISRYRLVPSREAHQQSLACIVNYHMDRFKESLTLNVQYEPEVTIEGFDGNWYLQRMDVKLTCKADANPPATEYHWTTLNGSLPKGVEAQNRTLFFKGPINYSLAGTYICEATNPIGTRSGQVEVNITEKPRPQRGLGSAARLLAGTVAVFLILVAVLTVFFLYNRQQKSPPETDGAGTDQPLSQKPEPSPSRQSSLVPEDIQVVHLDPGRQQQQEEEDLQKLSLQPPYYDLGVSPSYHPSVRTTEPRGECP
Put plainly: Retrogenix cell microarray, fixed HEK293 cells, 2 ug/mL antibody. As to the method:
(§1) This human cell microarray methodology has been previously described in the literature (Freeth, J. et al, SLAS Discovery, 25 (2), 223-230, 2020). Primary screening was performed on slides arrayed with fixed HEK293 cells with each spot of HEK293 cells expressing either a unique protein from the cell surface-ome, a cell surface tethered human secreted protein, or a heterodimeric human cell surface receptor. In total, 5,528 unique gene products were represented in this primary screen (4,103 human plasma membrane proteins (+some untethered secreted proteins)+1,425 cell surface tethered human secreted proteins). Briefly, slides containing fixed transfected HEK293 cells were overlaid with a solution of test antibody (2 μg/mL), incubated, and washed. Binding was assessed using AlexaFluor647-conjugated anti-human IgG Fc detection antibody and fluorescence quantitation on ImageQuant. […] Located in the ER, off-target binding to CRELD2 was of less concern. Nectin-1, FGFR2, and ISLR, on the other hand, display broad tissue expression profiles. Cross-reactivity to these proteins is undesirable because binding to these targets might have a significant impact on pharmacokinetic and biodistribution profiles of the molecules. This off-target binding was subsequently confirmed by flow cytometry on live HEK293 cells transiently expressing these ‘off-target’ proteins identified in the primary screen.

Test [3] addresses T3, NECTIN1 Isoform Gamma (NM_203286.1) (human, UniProt Q15223-3 31-352).
T3 construct: whole, on cells
T3 sequence (looked up): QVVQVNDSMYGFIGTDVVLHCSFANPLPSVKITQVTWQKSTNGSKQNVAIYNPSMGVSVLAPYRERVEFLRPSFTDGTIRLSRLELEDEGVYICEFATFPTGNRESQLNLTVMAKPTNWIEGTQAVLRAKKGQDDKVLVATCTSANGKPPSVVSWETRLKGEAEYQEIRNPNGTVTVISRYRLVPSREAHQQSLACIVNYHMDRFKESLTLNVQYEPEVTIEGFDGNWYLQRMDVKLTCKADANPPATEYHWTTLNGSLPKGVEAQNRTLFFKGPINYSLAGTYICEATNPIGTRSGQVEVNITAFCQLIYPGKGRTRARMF
Put plainly: Retrogenix cell microarray, fixed HEK293 cells, 2 ug/mL antibody; topology TS. Here is the method: as §1

The target in test [4] is human VEGFR1 (soluble antigen of the KinExA and SPR affinity assays) (human, UniProt P17948 27-758, limits assumed). Put plainly: KinExA, solution. In a few lines:
(§2)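 Solution-phase KinExA: fixed antibody (300, 60, 12, 2.4 or 0.5 pM) titrated with antigen (2 nM to 0.52 pM, or 800 pM to 5.37 fM), equilibrated at RT for at least 2 days; free antibody measured on bead column with fluorescent detection. KD from global n-curve fit to 1:1 model.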
A general note: A kinetic exclusion assay measures how much of one partner remains free in solution.

The target in test [5] is T4, rat VEGFR1 (soluble antigen of the KinExA and SPR affinity assays) (rat, UniProt P53767 23-758, limits assumed).
T4 sequence (looked up): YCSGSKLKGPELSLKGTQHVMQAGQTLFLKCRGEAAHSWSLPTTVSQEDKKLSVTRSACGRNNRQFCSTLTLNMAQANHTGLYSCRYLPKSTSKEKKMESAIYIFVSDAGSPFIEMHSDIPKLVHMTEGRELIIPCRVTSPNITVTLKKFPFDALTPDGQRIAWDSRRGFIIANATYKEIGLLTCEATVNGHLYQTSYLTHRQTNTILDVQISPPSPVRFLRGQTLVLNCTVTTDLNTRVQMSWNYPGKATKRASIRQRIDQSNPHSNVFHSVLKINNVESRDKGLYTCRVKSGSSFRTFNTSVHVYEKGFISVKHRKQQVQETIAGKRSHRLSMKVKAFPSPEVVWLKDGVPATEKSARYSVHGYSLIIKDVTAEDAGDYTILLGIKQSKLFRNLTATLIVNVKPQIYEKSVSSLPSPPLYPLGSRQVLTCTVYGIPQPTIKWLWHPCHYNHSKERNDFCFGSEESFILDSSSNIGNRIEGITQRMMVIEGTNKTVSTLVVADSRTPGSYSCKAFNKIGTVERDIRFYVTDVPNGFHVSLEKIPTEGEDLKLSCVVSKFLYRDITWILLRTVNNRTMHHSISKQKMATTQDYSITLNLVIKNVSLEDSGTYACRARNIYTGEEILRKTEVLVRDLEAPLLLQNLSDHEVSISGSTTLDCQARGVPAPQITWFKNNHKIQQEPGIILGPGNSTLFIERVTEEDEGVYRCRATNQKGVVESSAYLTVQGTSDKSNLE
Put plainly: KinExA, solution. In a few lines: as §2

Sequence of human VEGFR1 (soluble antigen of the KinExA and SPR affinity assays) (P17948 27-758 limits assumed): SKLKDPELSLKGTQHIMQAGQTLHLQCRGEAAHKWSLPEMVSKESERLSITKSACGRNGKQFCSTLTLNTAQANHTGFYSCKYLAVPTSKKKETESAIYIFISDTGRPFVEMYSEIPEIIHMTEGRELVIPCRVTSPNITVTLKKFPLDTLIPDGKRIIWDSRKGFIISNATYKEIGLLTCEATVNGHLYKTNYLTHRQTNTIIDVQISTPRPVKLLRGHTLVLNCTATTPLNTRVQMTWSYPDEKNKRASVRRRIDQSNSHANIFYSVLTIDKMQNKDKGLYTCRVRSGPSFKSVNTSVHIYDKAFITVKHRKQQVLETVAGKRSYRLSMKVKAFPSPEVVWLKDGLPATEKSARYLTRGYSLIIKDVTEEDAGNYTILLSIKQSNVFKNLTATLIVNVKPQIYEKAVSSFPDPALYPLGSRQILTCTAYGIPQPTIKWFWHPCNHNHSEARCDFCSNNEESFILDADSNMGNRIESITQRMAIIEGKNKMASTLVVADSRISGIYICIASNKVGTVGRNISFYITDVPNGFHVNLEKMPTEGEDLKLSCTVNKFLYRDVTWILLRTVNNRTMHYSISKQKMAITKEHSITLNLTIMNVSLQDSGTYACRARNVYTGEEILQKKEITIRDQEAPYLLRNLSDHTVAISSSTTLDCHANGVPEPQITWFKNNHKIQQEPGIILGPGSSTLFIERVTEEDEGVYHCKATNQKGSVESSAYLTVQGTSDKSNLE
T1 sequence (P35968 20-1356): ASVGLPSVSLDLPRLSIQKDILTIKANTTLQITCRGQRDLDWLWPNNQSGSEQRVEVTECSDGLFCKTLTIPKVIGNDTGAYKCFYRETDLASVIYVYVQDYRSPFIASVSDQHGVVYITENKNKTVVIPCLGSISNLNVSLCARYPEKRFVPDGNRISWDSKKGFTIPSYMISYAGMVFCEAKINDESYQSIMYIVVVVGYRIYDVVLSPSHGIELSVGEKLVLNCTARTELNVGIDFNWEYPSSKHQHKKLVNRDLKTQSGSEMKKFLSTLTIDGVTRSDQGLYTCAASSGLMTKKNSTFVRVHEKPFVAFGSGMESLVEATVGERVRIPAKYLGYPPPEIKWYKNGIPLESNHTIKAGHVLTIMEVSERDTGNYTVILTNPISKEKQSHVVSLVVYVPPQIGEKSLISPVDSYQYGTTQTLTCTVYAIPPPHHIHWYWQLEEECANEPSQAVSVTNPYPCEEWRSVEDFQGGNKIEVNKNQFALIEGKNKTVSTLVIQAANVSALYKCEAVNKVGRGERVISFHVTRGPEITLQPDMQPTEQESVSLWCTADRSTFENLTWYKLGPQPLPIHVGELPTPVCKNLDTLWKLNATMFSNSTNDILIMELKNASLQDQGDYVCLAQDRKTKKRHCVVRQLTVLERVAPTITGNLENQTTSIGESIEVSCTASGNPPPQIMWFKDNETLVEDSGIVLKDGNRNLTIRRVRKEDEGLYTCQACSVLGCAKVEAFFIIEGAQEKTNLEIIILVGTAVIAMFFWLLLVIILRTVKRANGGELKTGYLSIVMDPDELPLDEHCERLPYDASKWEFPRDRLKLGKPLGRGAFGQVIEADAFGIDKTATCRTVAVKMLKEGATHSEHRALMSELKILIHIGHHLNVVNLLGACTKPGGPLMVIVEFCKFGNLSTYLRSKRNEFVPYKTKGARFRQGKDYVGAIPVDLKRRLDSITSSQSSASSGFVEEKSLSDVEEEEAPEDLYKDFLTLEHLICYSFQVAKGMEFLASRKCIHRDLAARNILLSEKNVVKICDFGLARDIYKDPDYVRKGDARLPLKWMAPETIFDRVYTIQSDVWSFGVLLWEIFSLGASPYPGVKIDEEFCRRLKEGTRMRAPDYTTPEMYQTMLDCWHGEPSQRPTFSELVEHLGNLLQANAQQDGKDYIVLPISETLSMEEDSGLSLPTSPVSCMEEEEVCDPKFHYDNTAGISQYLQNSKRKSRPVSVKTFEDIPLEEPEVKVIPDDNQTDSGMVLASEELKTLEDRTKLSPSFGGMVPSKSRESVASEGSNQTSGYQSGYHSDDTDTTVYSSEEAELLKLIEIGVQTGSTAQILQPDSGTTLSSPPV

B1: VGFB71 (antibody, human IgG1, lambda, L234A L235A, V domains shown)
VH: EVQLLESGGGLVQPGGSLRLSCEASGFIFRDYNMNWVRQAPGKGLEWVSIITNDGSSTAYSDSVKGRFTISRDNSKNSLYLQMNSLRAEDTAIYYCVKVYYGMDDWGQGTTVTVSS
VL: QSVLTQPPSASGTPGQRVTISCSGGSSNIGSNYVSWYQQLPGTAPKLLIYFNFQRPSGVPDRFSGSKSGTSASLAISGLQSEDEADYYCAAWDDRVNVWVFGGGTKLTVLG
notes: human IgG1 (L234A/L235A/D265S)
Regarding B1, the binding result in test [1] is “no binding (tested: 10 nM)”; in test [2] it was “binds”; in test [3], “binds”.

B2: VGFB82 (antibody, human IgG1, lambda, L234A L235A, V domains shown)
VH: EVQLLESGGGLVQPGGSLRLSCEASGFDFSTYAMNWVRQAPGKGLEWVATINSEGTITSHAPAVKGRFTISRDNSKNTAYVQMNSLRAEDSAVYYCSSTTGTTHGMDVWGRGTTVTVSS
VL: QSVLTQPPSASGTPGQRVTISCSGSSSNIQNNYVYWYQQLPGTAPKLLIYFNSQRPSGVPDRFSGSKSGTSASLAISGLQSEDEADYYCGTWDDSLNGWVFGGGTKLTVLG
notes: as for B1
Turning to B2, the dissociation constant Kd (commonly a measure of binding affinity in units of concentration) is 0.00046 nM in test [4] and 0.224 nM in test [5].
